In patent US20230391854A1 (Innovent, published 2023):

B1: P5-22 (antibody, V domains shown)
VH: EVQLVESGGGLVKPGGSLRLSCAASGFTFRDYDIIWIRQAPGKGLEWVSYISRSGSTIYYSDSVRGRFTISRDNAKNSVYLQMNSLRAEDTAVYYCARDFGFEGPRMDVWGQGTTVTVSS
VL: DIQMTQSPSSLSASVGDRVTITCQASQDIKNYLNWYQQKPGKAPKLLIYDASNLETGVPSRFSGSGSGTDFTFTISSLQPEDIATYYCQQFDNLPITFGQGTRLEIK
notes: also called candidate antibody molecule P5-22
B2: P3-11 (antibody, V domains shown)
VH: QVQLVESGGGLVQPGGSLRLSCAASGITVSSNYMSWVRQAPGKGLEWVSVIYSGGSTFYADPVKGRLTISRDNSKNTLYLQMNSVRVEDTAVYYCARGEGWELPFDYWGQGALVTVSS
VL: QSALTQPPSASGSPGQSVTISCTGTSSDVGGNKYVSWYQQHPGKAPKLIIYEVSKRPSGVPDRFSGSKSGNTASLTVSGLQAEDEADYHCSSYAGSNNLVFGGGTKLTVL
notes: also called candidate antibody molecule P3-11
B3: P14-44 (antibody, V domains shown)
VH: QVQLVQSGAEVKKPGASVKVSCKASGYIFTSYSMHWVRQAPGQGLEWMGTIKPSDDSTNYAQKFQGRVSMTRDTSTSTVYMELSSLRYEDTAVYYCAREARGYYDRSGYYHPGYFDYWGQGTLVTVSS
VL: QSVLTQPASVSGSPGQSITISCTGTSSDVGGYNFVSWYQQHPGKAPKLMIYEVSDRPSGVSSRFSGSKSGNTASLTISGLQAEDEADYYCFSYTTSTTWVFGGGTKLTVL
notes: also called candidate antibody molecule P14-44
B4: P10-20 (antibody, V domains shown)
VH: QVQLVESGGGLVKPGGSLRLSCAASGFTFSDYYMSWIRQAPGKGLEWVSYISISSTYTNYADSVKGRFTISRDNAKNSLYLQMNSLRAEDTAVYYCVIAAAGKGHYYYGMDVWGQGTTVTVSS
VL: not shown
notes: also called candidate antibody molecule P10-20
B5: P23-29 (antibody, V domains shown)
VH: QVQLQESGPGLVKPSETLSLTCTVSGDSISSSTYYWGWIRQPPGKGLEWIGSMYYGRSTYYNPSLKSRVTVSVDTSKNQLSLKVSSVTAADTAVYYCARHLGGVDYWGQGTLVTVSS
VL: DIQMTQSPSSLSASVGDRVTITCRASQGISNSLAWYQQEPGKAPKLLLYAASTLESGVPSRFSGSGSGADSTLTISSLQPEDFATYYCQQYYSASALTFGGGTKVEIK
notes: also called candidate antibody molecule P23-29
B6: P15-16 (antibody, V domains shown)
VH: QVQLVESGGGLVQPGRSLTLSCAASGFTFDDYAMHWVRQAPGKGLEWVSGISWNSGTIDYADSVKGRFTISRDNAKNSLYLQMNSLRAEDTALYYCATLPRERAYSGYDRIFYTIDVWGQGTTVTVSS
VL: not shown
notes: also called candidate antibody molecule P15-16
B7: P14-37 (antibody, V domains shown)
VH: EVQLVESGGGLVKPGGSLRLSCAASGFTFSNAWMSWVRQAPGKGLEWVGRIKRNSDGGTTDHAAPVTGRFIISRDDSKNTLYLQMNSLRTEDTAVYYCTTDLDTVVRRVVITDHDAFDIWGQGTMVTVSS
VL: DIQMTQSPSSLSASVGDRVTITCRASQSISSFLNWYQQKAGKAPKLLIYAASSLQSGVPSRFSGSGSGTDFSLTISNLQPEDFATYYCQQSYSTPSITFGQGTRLEIK
notes: also called candidate antibody molecule P14-37

biological target: nCoV S (ACRO, SPN-C52H4) (SARS-CoV-2, UniProt P0DTC2 16-1213)

Binder	EC50
B1	0.0226 nM
B2	0.0226 nM
B3	0.0213 nM
B4	0.0184 nM
B5	0.0364 nM
B6	0.0228 nM
B7	0.0161 nM
